Experimental findings from the supplement of paper PMC12455559 are described below.

Data set [1] in a line: purified protein yield per well (BCA); higher = higher soluble expression. The method in brief: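 Each candidate enzyme was grown in E. coli C41(DE3) in a 2 mL autoinduction culture (100 µg/mL kanamycin; 2 h at 37 °C, then 40 h at 18 °C) and purified robotically via Ni-charged magnetic beads with SUMO protease cleavage. Purified protein yield per well was assessed using the Pierce Rapid Gold BCA kit. Readings below 25 ug (0.1 mg/mL) are beneath the detection threshold.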

Data set [2] can be described thus: melting temperature (DSF); higher = more thermostable. A digest of the protocol:
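Values are melting temperatures from differential scanning fluorimetry. Candidate enzymes were expressed in E. coli C41(DE3), purified on nickel beads and freed by SUMO protease cleavage. In sealed PCR plates on a Bio-Rad CFX96, 45 μL enzyme (0 to 0.3 mg/mL) was combined with 5 μL 5X Sypro Orange. Fluorescence was recorded from 25 °C for 250 cycles, rising 0.3 °C per cycle at a ramp of 0.3 °C/s.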

Data set [3] in a line: PET hydrolysis, aromatic products released after 48 h (umol product/mg enzyme); higher = more PET depolymerization activity. The method in brief:
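Amorphous PET film or crystalline PET powder (3.5 mg) in 450 μL of 50 mM NaCitrate (pH 4.5, 5.5), 50 mM NaPhosphate (pH 6.5, 7.5) or glycine (pH 8.5) received 5 μg (50 μL) of candidate enzyme. That enzyme was purified on nickel beads and freed of its tag by SUMO cleavage. After 48 h at 40 or 60 °C in sealed plates without shaking, absorbance of the supernatant at 260 and 280 nm was read against buffer blanks. PET hydrolysis activity is this aromatic product expressed per mg enzyme.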

Setting [4] is: substrate: aFilm, 40 °C, pH 5.5.
Setting [5] is: substrate: aFilm, 40 °C, pH 6.5.
[6] abbreviates: substrate: aFilm, 40 °C, pH 7.5.
Setting [7] is: substrate: aFilm, 60 °C, pH 5.5.
The mark [8] stands for this setting: substrate: aFilm, 60 °C, pH 6.5.
[9] abbreviates: substrate: aFilm, 60 °C, pH 7.5.
[10] abbreviates: substrate: cryPow, 40 °C, pH 4.5.
Where [11] appears, read: substrate: cryPow, 40 °C, pH 5.5.
[12] abbreviates: substrate: cryPow, 40 °C, pH 6.5.
Where [13] appears, read: substrate: cryPow, 40 °C, pH 7.5.
The mark [14] stands for this setting: substrate: cryPow, 60 °C, pH 4.5.
The mark [15] stands for this setting: substrate: cryPow, 60 °C, pH 5.5.
Setting [16] is: substrate: cryPow, 60 °C, pH 6.5.
Setting [17] is: substrate: cryPow, 60 °C, pH 7.5.
[18] abbreviates: substrate: cryPow, 40 °C, pH 8.5.
Setting [19] is: substrate: cryPow, 60 °C, pH 8.5.

± gives the standard deviation of the averaged measurements.

In the case of “ANPYERGPNPTQALLEARSGPFSVSSERAWRLGSDGFGGGTIYYPRENNTYGAVAISPGYTGTQASVAWLGERIASHGFVVITIDTNTTLDQPDSRADQLEAALDHMVDGASSTVRSRIDRNRLAVMGHSMGGGGTLRLASQRPDLKAAIPLTPWHLNKSWSNVQVPTLIIGADLDTIAPVLTHAEPFYNSIPTSTRKAYLELDGATHFAPNITNSTIGMYSVAWLKRFVDEDTRYTQFLCPGPRTGLFSDVEEYRSTCPF [TEP014]”, the “purified protein yield per well” value in data set [1] turned out to be 267 µg. The sequence further had a melting temperature in data set [2] of 54.1 C. In addition, the PET hydrolysis in data set [3] (substrate: aFilm, 40 °C, pH 4.5) was under 3; in data set [3] (setting [4]), under 3; in data set [3] (setting [5]) it was under 3; in data set [3] (setting [6]), under 3; in data set [3] (substrate: aFilm, 60 °C, pH 4.5), under 3; in data set [3] (setting [7]), under 3. The PET hydrolysis is under 3 in data set [3] (setting [8]); under 3 in data set [3] (setting [9]); under 3 in data set [3] (setting [10]); under 3 in data set [3] (setting [11]); 1.5 ± 2.1 in data set [3] (setting [12]); 4.5 ± 0.71 in data set [3] (setting [13]). For the same sequence, the PET hydrolysis in data set [3] (setting [14]), in data set [3] (setting [15]), in data set [3] (setting [16]) and in data set [3] (setting [17]) was under 3 throughout.
For the sequence “ADNPYQRGPDPTLASVAASRGPFATTQATVPPGNGFNGGYVYYPTDTSLGTWGAVAIVPGYSALFANEEAWMGPWLASFGFVVLGIETNSRNDGADARATQLLAALDYLTQSSPVRNRVDPNRLSVMGHSAGGAGTLMAALRRPSLKTAVGLAPGAPGNSLNMSTTKVPTMLISGQNDGTVTPSYVQGIYNTLPASVEHAWAELAGNDHLSFTRPNPTEMRILIPWLKIFLDNDTRYTQFLCPLADSTGVSRYNSTCPLVPPGVPTSPPTTPPTSTPPPTGPPTSPPPPTTTPPPAGGACTATYRTVGSWSGGFQGEVTVTAGSAAINGWTVRLDLGGGQSISQVWNGTLSTSGSTATVRNVSYNGSLAAAGSTTFGFLGSGTPPAPTPTCTSP [ESM005]”, in data set [1], the “purified protein yield per well” value stood at 88.4 µg. In data set [2], the melting temperature is 67 C. For the same sequence, the PET hydrolysis in data set [3] (setting [10]), in data set [3] (setting [11]), in data set [3] (setting [12]), in data set [3] (setting [13]), in data set [3] (setting [14]) and in data set [3] (setting [15]) was under 3 each time. In addition, the PET hydrolysis in data set [3] (setting [16]) and in data set [3] (setting [17]) was under 3 in each case.
On to “AAAAGRADQRGPDPSVAGVAATYGPFATAQLTVPAGNGFNGGYIYYPTDTSLGTWGAVAIVPGYSALFANEEAWMGPRLASFGFVVIGIETTTRTDGADARATQLLAALDYLTQRSPVRDRVDPGRLAVMGHSAGGAGALLAAMRRPSLRAVVGLAPGSPTGLSSLSTDVVPTLFVGGQQDPTVTPSYLDNLYATLPASTQSAYVQLGGADHLFFTRANDVEIRRLVPWLKLFLDGDTRYTQFMCPTTPDTTGVSRYSAKCPLVPPGGPTGSASPSSPGASNSPSSPPASSSAPGAACVATYRTVGQWSGGFQGEVTVTAGGRPVNGWTVRWALGSGQAVSQLWNGALSTSGSAVSVRNVSYNGALAASASTTFGFLGSGTPSTPALSCTSP [ESM041]”, for which the “purified protein yield per well” value in data set [1] was 106 µg. In data set [2], this sequence had a melting temperature of 47.8 C. The PET hydrolysis in data set [3] (setting [10]), in data set [3] (setting [11]), in data set [3] (setting [12]) and in data set [3] (setting [13]) was under 3 throughout.
As for “AGFEKGPDPTTASVTADRGSYDIAQVDVPKGSGTGFADGTIYYPKSTADGTFGAVAVIPGFLEPKSAIDWYGPRLASQGFVVMTLDTTSVFDTPDSRGGQLLAALDYLTSKSTVKDRIDPNRLAVVGHSMGGGGTLSAAANRPNLKAAVALAPWHVSAPLTSVKTPTMIFGSDNDFIAPDGTFAKPFYDGISNAPEKAYVRLKNAGHMAYVFPDKRIAEYTLSWLKRYVDDDTRYTQFLCPGPTNESTIAAYKSTCPM [DP093]”, in data set [1], the “purified protein yield per well” value amounted to 225 µg. In addition, in data set [2], the melting temperature was found to be 46.6 C. For the same sequence, the PET hydrolysis is under 3 in data set [3] (setting [4]); under 3 in data set [3] (setting [5]); under 3 in data set [3] (setting [6]); under 3 in data set [3] (substrate: aFilm, 40 °C, pH 8.5); under 3 in data set [3] (setting [7]); under 3 in data set [3] (setting [8]). For the same sequence, the PET hydrolysis in data set [3] (setting [9]) was under 3; in data set [3] (substrate: aFilm, 60 °C, pH 8.5) it was under 3; in data set [3] (setting [11]) it was 4; in data set [3] (setting [12]), 1.5 ± 2.1; in data set [3] (setting [13]), under 3; in data set [3] (setting [18]) it was under 3. The PET hydrolysis in data set [3] (setting [15]), in data set [3] (setting [16]), in data set [3] (setting [17]) and in data set [3] (setting [19]) was under 3 each time.
As for “QPTLESLGNPGPYQVAYYDQLPEVDEYGAATLYFPANRGTDFGGVAIAPGFIEQQENIEWWGRHLASYGFAVLVLDTNNPRDDPQVRSEALLAALDVIRGEGARSGSPIRGKILNDRMAVMGHSMGGGGTLLAANRASDQLKAIIPFTPWLPNADFSSVAVPTLVLAGEVDRIASVAEHAWPHFQTLPEGIPRMYVEIAGGNHFIANSTTDQERLNPNIDVHDLVGALGVAWLKYFVDGDEDYRDLIYGELPAEQRARLSRFEFVQ [TEP107]”, in data set [1], the “purified protein yield per well” value is 57.2 µg. This sequence also came in with a melting temperature in data set [2] of 44.5 C. The PET hydrolysis in data set [3] (setting [10]), in data set [3] (setting [11]), in data set [3] (setting [12]), in data set [3] (setting [13]), in data set [3] (setting [14]) and in data set [3] (setting [15]) was under 3 each time. Also, the PET hydrolysis in data set [3] (setting [16]) and in data set [3] (setting [17]) was under 3 throughout.
As for “ATTSYQRGPNPTEQSVRAANGPFAYSQFAIPDAEATGFGEGTIYYPNNTSVGTFGGVVIAPGFNADQNSTVWLGKRLASHGFVAVTITTHELNDQPYERGKQILAALDYLTGQSPAFVRSRLDPARLAAVGHSMGGGGTLFAAAQRPSLKAIVPLAPWALAKNWSNVQVPTMILSGAQDASAPPAEHAEKFYASLTSAPEKAYAKLDVNHVRFAWEHPLIGKLVVSWLKRFVDEDTRYTQFLCPTATGAVLLEYRATCPLG [DP026]”, the “purified protein yield per well” value in data set [1] was 164 µg. In data set [2], the melting temperature was determined as 66.1 C. Further, the PET hydrolysis was 3 in data set [3] (setting [11]); under 3 in data set [3] (setting [12]); under 3 in data set [3] (setting [13]); under 3 in data set [3] (setting [18]); under 3 in data set [3] (setting [15]); under 3 in data set [3] (setting [16]). The PET hydrolysis in data set [3] (setting [17]) and in data set [3] (setting [19]) was under 3 in each case.
